“Also recorded” adds a separate entry of the source.
Tests used:
C57BL/6 mice = assay: Mouse MATRIGEL plug angiogenesis assay; assay type: in vivo
Experimental: The ability of mouse recombinant SFRP2 would stimulate angiogenesis in a mouse MATRIGEL plug angiogenesis assay was evaluated. Female C57BL/6 mice (8 weeks old) were injected s.c. with 0.5 ml of growth factor reduced basement membrane matrix (MATRIGEL) containing either mouse recombinant SFRP2 (800 ng/ml) with 30 U/ml heparin or PBS with 30 U/ml heparin for negative control. Seven days later the mice were sacrificed and the MATRIGEL plugs removed and evaluated for angiogenesis by hemoglobin concentration with the Drabkin's reagent.

NFATc3 = assay: Western blot for nuclear NFATc3 in MEC cells; assay type: cell-based, mouse; conditions: SFRP2 700 pM
Experimental: To evaluate the role of the non-canonical Wnt/Ca^++ pathway in SFRP2 induced angiogenesis, nuclear dephosphorylated NFATc3 protein levels were compared in control and SFRP2-treated endothelial cells. MEC cells were plated in 12-well plates and allowed to attach overnight. The next day, the media was changed and added to the wells with and without SFRP2 (700 pM). Cells were incubated for 1, 2, 4, 8 and 16 hours, and the nuclear proteins were extracted by using NE-PER™ nuclear and cytoplasmic extraction reagent from PIERCE (Pierce Biotechnology) as described in the manufacturer's manual. The Western blot analysis was performed using standard methods, with primary antibody to the dephosphorylated (active) β-catenin antibody or NFATc3.

[1] = test system: Human coronary artery endothelial cells (HCAEC); assay: Hypoxia-induced endothelial cell apoptosis assay (caspase 3); assay type: cell-based; conditions: SFRP2 70 pM and 700 pM, 36 h hypoxia
Experimental: Human coronary artery endothelial cells (HCAEC) were used for apoptosis assays because apoptosis could not be induced in the MEC cells. HCAECs were grown in 10-cm dishes (Becton Dickinson, Franklin Lakes, N.J.) with endothelial cell basal medium-2 (EGM-2) BulletKit media (Clonetics, San Diego, Calif.) until 80% confluent. Medium was then replaced with optimal medium according to different assays. The hypoxic condition was created by incubating HCAECs in EGM-2 media without BulletKit growth factors at 37° C. in a hypoxia chamber with an atmosphere of 5% CO2/95% N2. The oxygen level in the chamber was controlled to 1.0%. Apoptosis was determined by measuring the activity of cleaved caspase 3 by using a caspase-specific fluorogenic substrate according to the protocol for the Caspase 3 Assay Kit (Sigma). HCAECs were lysed after treatment with concentrations of SFRP2 (70 pM and 700 pM) for 36 h under hypoxia. […] The enzyme-catalyzed release of 7-amino-4-methyl coumarin (AMC) was measured by a fluorescence microplate reader.
HCAEC were seeded onto a 96 well plate at 2,000 cells/well in EGM-2 with BulletKit growth supplements. […] Apoptosis was determined by measuring the activity of cleaved caspase 3 by using a caspase-specific fluorogenic substrate according to the protocol for the Apo-ONE® Homogeneous Caspase-3/7 Assay (Promega, Madison, Wis.). […]

[2] = test system: chick chorioallantoic membrane; assay: Chick chorioallantoic membrane (CAM) assay; assay type: in vivo, chicken; conditions: 100 ng per disk, evaluated day 3 after disk placement
Experimental: On day 4, the eggs were cracked into sterile Petri dishes and incubated at 99° F. in 3% CO2, 65% humidity. For application of drug onto the CAM, Whatman grade 1 filter paper was cut into circles with a 6 mm diameter paper punch and autoclaved. To decrease inflammatory effects of the disk, the discs were soaked in 1 ml of 3.0 mg/ml cortisone acetate in absolute ETOH and air dried for 60 min in a laminar flow hood. On day 8, 5 disks per egg were placed on the outer third of the CAM, 2-3 mm from a vessel. Control PBS 7 μl was added to the discs for the control CAMs, and SFRP2 100 ng/7 μl PBS was added to the disks for the treated CAMs (n=5 control disks and 5 SFRP2-treated disks). The CAMs were evaluated under a stereomicroscope on day 3 after disk placement. Pictures were taken with a Wild M-4 70 Macrosystem, and angiogenesis was quantified using Metamorph Software with an angiogenesis module.
Fertilized chickens eggs (NC State University Chicken Research Faint) were incubated at 100.4° F. in an egg turner (Model#1588 Genesis Hova-Bator, GQF Mfg. Co., Inc.) for 3 days. […] CAMs were evaluated under a stereomicroscope on day 3 after disk placement. Pictures were taken with a Wild M-4 70 Macrosystem and angiogenesis was quantified using Metamorph Software with an angiogenesis module.

β-catenin = assay: Western blot for nuclear and cytoplasmic β-catenin in endothelial cells; assay type: cell-based, mouse; conditions: SFRP2 700 pM
Experimental: SFRP2 has been described as both a Wnt antagonist and agonist, but its effects on Wnt signaling in endothelial cells have not been elucidated. To determine if SFRP2 mediates canonical Wnt signaling in endothelial cells, cytoplasmic and nuclear β-catenin levels were measured in SFRP2-treated endothelial cells. Mouse endothelial cells were plated in 12-well plates and allowed to attach overnight. The next day, the media was changed and added to the wells with and without SFRP2 (700 pM). Cells were incubated for 16 hours, and the nuclear and cytoplasmic proteins were extracted by using NE-PER™ nuclear and cytoplasmic extraction reagent from PIERCE (Pierce Biotechnology) as described in the manufacturer's manual. Western blot analysis was performed using standard methods, with primary antibody to the dephosphorylated (active) β-catenin antibody (Santa Cruz, Clone BDI480, catalog # sc-59893).
To evaluate the role of the non-canonical Wnt/Ca^++ pathway in SFRP2 induced angiogenesis, nuclear dephosphorylated NFATc3 protein levels were compared in control and SFRP2-treated endothelial cells. MEC cells were plated in 12-well plates and allowed to attach overnight. The next day, the media was changed and added to the wells with and without SFRP2 (700 pM). […]

B1: SFRP2: mouse recombinant SFRP2 (US Biologicals), secreted frizzled-related protein 2 (protein)
chain: LFLFGQPDFSYKRSNCKPIPANLQLCHGIEYQNMRLPNLLGHETMKEVLEQAGAWIPLVMKQCHPDTKKFLCSLFAPVCLDDLDETIQPCHSLCVQVKDRCAPVMSAFGFPWPDMLECDRFPQDNDLCIPLASSDHLLPATEEAPKVCEACKTKNEDDNDIMETLCKNDFALKIKVKEITYINRDTKIILETKSKTIYKLNGVSERDLKKSVLWLKDSLQCTCEEMNDINAPYLVMGQKQGGELVITSVKRWQKGQREFKRISRSIRKLQC
hemoglobin content of plugs, increase compared with the vehicle control (C57BL/6 mice; SFRP2 800 ng/ml with heparin, s.c., seven days): 3.3 fold | angiogenesis in the mouse MATRIGEL plug assay (C57BL/6 mice; mouse, in vivo): induces angiogenesis | nuclear NFATc3 level (NFATc3): increased at 30 minutes in the nuclear fraction | hypoxia induced endothelial cell apoptosis (cleaved caspase 3 activity) [1]: protected against hypoxia induced endothelial cell apoptosis; also recorded: inhibits hypoxia-induced apoptosis | angiogenesis on the CAM (branch points, segments, tube area, tube length) [2]: induced angiogenesis on the CAM; also recorded: induces angiogenesis on the chorioallantoic membrane | nuclear (and cytoplasmic) β-catenin level (β-catenin): no change in nuclear β-catenin; also recorded: no change in cytoplasmic or nuclear β-catenin levels
